Target: T1, Hbs1 (S. cerevisiae, UniProt P32769 1-611)
T1 construct: Hbs1, S. cerevisiae, eEF1A-like GTPase; N-terminal domain is seen in the map, linker aa 78-140 disordered; source: E. coli BL21 (DE3), purified (Nickel-NTA, size-exclusion chromatography)
T1 sequence (looked up): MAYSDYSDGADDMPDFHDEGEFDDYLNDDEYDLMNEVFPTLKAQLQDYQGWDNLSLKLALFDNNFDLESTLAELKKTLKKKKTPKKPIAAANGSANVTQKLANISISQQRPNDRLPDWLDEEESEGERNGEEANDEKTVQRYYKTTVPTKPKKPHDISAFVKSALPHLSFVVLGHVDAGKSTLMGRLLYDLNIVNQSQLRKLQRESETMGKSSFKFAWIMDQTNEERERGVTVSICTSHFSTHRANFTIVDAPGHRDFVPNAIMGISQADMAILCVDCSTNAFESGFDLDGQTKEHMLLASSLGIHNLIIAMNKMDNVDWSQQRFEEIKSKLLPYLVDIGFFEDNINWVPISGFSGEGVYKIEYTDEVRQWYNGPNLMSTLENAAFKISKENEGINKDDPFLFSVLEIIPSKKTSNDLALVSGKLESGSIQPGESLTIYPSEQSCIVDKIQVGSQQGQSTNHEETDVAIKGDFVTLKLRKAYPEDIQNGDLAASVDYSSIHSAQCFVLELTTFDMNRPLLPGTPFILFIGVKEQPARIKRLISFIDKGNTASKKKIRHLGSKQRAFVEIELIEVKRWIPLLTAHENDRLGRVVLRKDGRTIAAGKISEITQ
Experiment: cryo-EM structure; Dom34 and Hbs1 (50 pmol each) pre-incubated with 1 mM GMPPNP in binding buffer (30 mM Hepes pH 7.5), 20 min at 30 °C, then combined with 10 pmol reassociated S. cerevisiae 80S ribosomes programmed with nonstop mRNA and AcPhe-tRNAPhe, 15 min at 30 °C; reconstruction at 3.3 Å
Details: both partners purified

binding result: binds
B1: Dom34 (natural protein, S. cerevisiae)
chain: MKVISLKKDSFNKGGAVITLLPEDKEDLFTVYQIVDKDDELIFKKKFTSKLDEAGKKKSTDLVKLKIKVISEDFDMKDEYLKYKGVTVTDESGASNVDIPVGKYLSFTLDYVYPFTIIKQNFNKFMQKLLNEACNIEYKSDTAAVVLQEGIAHVCLVTSSSTILKQKIEYSMPKKKRTTDVLKFDEKTEKFYKAIYSAMKKDLNFDKLKTIILCSPGFYAKILMDKIFQYAEEEHNKKILDNKGMFFIAHCSTGYLQGINEVLKNPLYASKLQDTKYSKEIMVMDEFLLHLNKDDDKAWYGEKEVVKAAEYGAISYLLLTDKVLHSDNIAQREEYLKLMDSVESNGGKALVLSTLHSLGEELDQLTGIACILKYPLPDLDEDDGEE
notes: Dom34, S. cerevisiae; also called Pelota in mammals; source: E. coli BL21 (DE3), purified (Nickel-NTA, size-exclusion chromatography)

From paper PMC5187420, “Structural insights into ribosomal rescue by Dom34 and Hbs1 at near-atomic resolution” (Nature Communications, 2016)
